Laboratory results as given in paper doi:10.1101/2020.05.18.102780.

Biological target: Ktedonobacter racemifer acyl carrier protein (KrACP) (Ktedonobacter racemifer DSM 44963)
Experiment: SDS-PAGE

stoichiometry N: 2
Substance: Ktedonobacter racemifer acyl carrier protein (KrACP) (natural protein)
